Results reported in PMC4538822, “Ribosomal protein L10(L12)4 autoregulates expression of the Bacillus subtilis rplJL operon by a transcription attenuation mechanism”.

Tests used:
[1] = biological target: T1, L10(L12)4 complex (ribosomal proteins L10 and L12) (Bacillus subtilis (source strain of the …, UniProt P42923;P02394 1-166;1-123)); assay: 3' boundary analysis (native gel EMSA); 1 or 3 uM L10(L12)4; Filter binding: 30 mM Tris-HCl pH 7.6, 175 mM KCl, 3 mM MgCl2, 10% glycerol, 0.2 mg/ml yeast RNA, 50 ug/ml BSA, 0.01 nM RNA, 37 C 30 min; in-line probing: 50 mM Tris-HCl pH 8.3, 20 mM MgCl2, 100 mM KCl, 15% glycerol, 25 C 40 h; boundary: 37 C 30 min; conditions: protein: recombinant, tags: N-terminal His6 on L10, copies: 1;4, label: 5' 32P, AAT structure complete (3' end of AAT at +72)
T1 sequence 1: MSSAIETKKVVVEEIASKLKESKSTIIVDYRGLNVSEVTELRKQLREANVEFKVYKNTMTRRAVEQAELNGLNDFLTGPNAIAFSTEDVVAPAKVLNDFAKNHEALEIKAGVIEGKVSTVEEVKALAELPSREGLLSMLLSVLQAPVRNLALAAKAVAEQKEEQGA
T1 sequence 2: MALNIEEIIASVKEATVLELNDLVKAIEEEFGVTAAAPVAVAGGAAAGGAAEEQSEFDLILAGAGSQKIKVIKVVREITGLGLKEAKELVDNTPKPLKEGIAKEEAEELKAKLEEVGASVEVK

[2] = biological target: T1, L10(L12)4 complex (ribosomal proteins …); assay: filter binding; 3 mM Mg2+; yeast RNA competitor 0.2 mg/ml; apparent Kd; Filter binding: 30 mM Tris-HCl pH 7.6, 175 mM KCl, 3 mM MgCl2, 10% glycerol, 0.2 mg/ml yeast RNA, 50 ug/ml BSA, 0.01 nM RNA, 37 C 30 min; in-line probing: 50 mM Tris-HCl pH 8.3, 20 mM MgCl2, 100 mM KCl, 15% glycerol, 25 C 40 h; boundary: 37 C 30 min; conditions: protein: recombinant; tags: N-terminal His6 on L10; L12 native; copies: 1;4; label: 5' 32P; anti-antiterminator (AAT) structure with kink-turn

B1: rplJL leader RNA +13 to +76 (3' boundary, bound) (structured_RNA)
RNA: AAUAUCAUUUAUACCGUAGACAGUAGGGGCCUAACCGCUUAAUUAUCCUACCGAGGUGUAUAUU
B1: binds [1].

B2: rplJL leader RNA +13 to +118 (structured_RNA)
RNA: AAUAUCAUUUAUACCGUAGACAGUAGGGGCCUAACCGCUUAAUUAUCCUACCGAGGUGUAUAUUAUCACAGCUAUUACGUUACGUAUGCUUGUAUAUACAGCCUCC
For B2, the Kd [2] was 0.033 ± 0.01 µM.
